In patent US20210340263A1 (WISTAR INSTITUTE, published 2021):

Molecular target: T1, murine FSHR (murine, UniProt P35378 18-692)
T1 construct: whole, on cells; also called mouse FSHR
T1 sequence (looked up): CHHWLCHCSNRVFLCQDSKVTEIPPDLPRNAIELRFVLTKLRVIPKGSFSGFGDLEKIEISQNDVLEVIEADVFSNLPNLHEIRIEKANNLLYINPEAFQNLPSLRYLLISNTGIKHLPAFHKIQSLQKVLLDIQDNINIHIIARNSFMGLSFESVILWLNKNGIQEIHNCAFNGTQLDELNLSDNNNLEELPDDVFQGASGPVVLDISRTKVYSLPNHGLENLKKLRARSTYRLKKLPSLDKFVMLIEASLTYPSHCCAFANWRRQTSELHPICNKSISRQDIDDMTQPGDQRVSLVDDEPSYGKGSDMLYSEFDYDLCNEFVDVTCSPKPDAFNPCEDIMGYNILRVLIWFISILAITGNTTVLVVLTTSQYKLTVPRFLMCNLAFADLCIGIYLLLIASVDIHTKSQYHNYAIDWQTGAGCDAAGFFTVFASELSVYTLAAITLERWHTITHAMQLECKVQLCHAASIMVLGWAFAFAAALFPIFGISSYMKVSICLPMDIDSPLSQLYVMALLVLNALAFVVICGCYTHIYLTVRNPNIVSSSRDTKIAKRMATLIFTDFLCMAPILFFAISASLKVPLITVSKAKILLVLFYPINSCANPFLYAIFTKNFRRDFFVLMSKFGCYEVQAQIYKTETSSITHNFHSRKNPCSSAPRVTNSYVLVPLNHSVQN
Assay: immunofluorescence, 293T cells transiently transduced with murine FSHR
Source text: The use of 9H11 for staining FSHR in immunocytochemistry through immunofluorescence was validated.

- binding result: binds
B1: 9H11 monoclonal antibody (murine, original) (antibody, mouse IgG2a, kappa, V domains shown)
VH: QVNLKESGPGILQPSQTLNLTCSFSGFSLSTSGMGVGWIRQPSGKGLDWLAHIWWDDDKRYNPALKSRLTISKDASSNQVFLKIASVVTADTATYYCVQINYGNYRFDNWGHGTTLTVSS
VL: not shown
notes: Mouse hybridoma antibody; also called murine monoclonal antibody 9H11; 9H11 antibody
